Data published in the DeepSol protein solubility set.

test: soluble on expression in E. coli; label from the status in PepcDB or PDB records

| Sequence | soluble on expression in E. coli |
| --- | --- |
| GPGSMSSSPNPMGAGTASATPKSTGGPEASPGSVRRSTLYAVLNVSHTATLEEITAAYRKLALVYHPDRPNGLQWKFQEIQRAYEVLSQKDARAKYDILLRGKLAVKNFKRPPPLESVLQPVYALLADGAFYEFEAASSKLKCSFHYGDGIQFNGDCGSFIGLAGDGFIYWTISGRGFASRLCKAGSTFALSSVRVMYRSNMGLAKMPLKRSSLHSSHTCRPAGSSGDKRAVRGSTGDAGCSERAKSTTGARAAKMSEADRIKKALLNKERSRNLKRRMETLKEEEIEARNSLQQDLWGQFSSLHTTAEVAFRCTLQGVAVPVEMALWMGYKSPEEVMLRSSGACSSLFIAEQVSLQTSSLWVDPLQSDYFNDDEMLREGCDGNKEDRKHCTSNGRDVTARHKPDSADSSPCSSQSSPASDGAPDGDACRGRSATASGTHSPILHRLNNGATAVTGASDGAEVAKKE | not soluble |
| MGSSHHHHHHSSGRENLYFQGMTKSKNNPGRGNTIRESNTMKVMEEIREKIRKAIKEGVSLREIEEIILQEAMMEEREAYLEVEDDHKNGTYFRYLGTGDGVLRLRVPRTRKGGFRPKILPEKYERTSPDYEDFLQQLVLSGMTPSQVKAVLAAKGIPYSEIVMNRVAERISNKLKEYKSRELPHDLLALYIDVKIVKVRISESIMERAIYIAIGVDLEGNKFVLDYEVRDREDLDGWKSFLSGLVSRGVSRVDVIVSDDFSGLDRVVSTLFPSSQHQLCITHMVRNLMRVLPDKEKEELMIRVRDLKSSRNVEEGRKAILSLSQLVQPFSPARAKRLLDAADKYCSFLNFPREIRHYLYTNNTSESFNLTLARFEEELGGYFPSLRSLEVYLYVSIHESNSRWKFRPMSVIRHYSYHLKQLHASRFQVSLDEDF | soluble |
| SNRLPDDYDPYAVEEPSDEEPALSSSEDEVDVLLHGTPDQKRKLIRECLTGESESSSEDEFEKEMEAELNSTMKTMEDKLSSLGTGSSSGNGKVATAPTRYYDDIYFDSDSEDEDRAVQVTKKKKKKQHKIPTNDELLYDPEKDNRDQAWVDAQRRGYHGLGPQRSREQQPVPNSDAVLNCPACMTTLCLDCQRHESYKTQYRAMFVMNCSINKEEVLRYKASENRKKRRVHKKMRSNQEDAAEKAETDVEEIYHPVMCTECSTEVAVYDKDEVFHFFNVLASHS | soluble |
| MAHHHHHHMTEYALSLYVTLPSSFPKAAPRATMPYCCHNVPITPPNINPSEALAYQWSSTTSTLVEAVRNAFQNAADCWGPVEPPSMRSVTLQLSGETDRLLQDLVTNPNCLDAYCYQLPIVKLMREASRHTVSEIERVANENTTLRNEVETLEAQVKDLQRYLDEQVSQLQQLEQNRLLLSVGTPEALIKTLEDDVRRMSSDCMTLGRRALDAYKADKGGFQDLLKQYKAQSKATHMLDLKRLSYRAQCAAS | not soluble |
| MSGDIPLHQLQPNMNSFSVTVIVLDPGIHRRTQTGTIISMKVADASGSINASIMNPEFNETFKPGDILKFRGAYTSIYQGGLTLSVGKSGECKKVGEFMMVFSETPDISMMPLPAGVMDRRNERMQSPAGRYSRPSN | not soluble |
| MGSDKIHHHHHHMFMPEAVNWNRPIKVGVSSCLLGEKVRYDGGHKHDHYITDVLGKFFTFVPVCPEVGCGMPVPREAMRLEGDPEHPRLVTNKTRIDKTEQMRAFCKQKVTELADEELCGFIFKKDSPSSGLFRVKVHNEGMPTRSGSGLFAAAVVKHFPLLPAEEEGRLNDAAIRENFIERIFCYRRWKDFLLDSPDLGHLVTFHARHKLLILAHSTSIYREMGSLVAHGKGMSWPELAQSYEALFMKALALHATVKKNTNVLTHIMGYFKRDLSPAEKEELLGVIKEYHDRLVPLIVPLTLLKHYVGKYGQSYLQQQYYLSPHPAELMLRNHV | not soluble |
| MKLLLHICCGPCAVYPVNVLREEGIYFEGLFYNPNIHPYDEFIRRKENVKKLSEIKNVPVKYMDDFSQEIWEKLGEDNEKRCNMCYALRIDKVAGYAKENGFDAFTTTLLVSPYQKHELIVELSKRAGEKYGIEFFYKDFRPGFRQGQQEAKELGLYRQKYCGCIISYREAEKLKSERKSK | soluble |
| MRDVLEVLEFPRVRALLAERAKTPLGRELALALAPLPREEAEKRHELTGEALSYPYALPEAGTLREAYGRALAGARLSGPELLKAAKALEEAMALKEELLPLKNALSQVAEGIGDHTPFLERVRKALDEEGAVKDEASPRLAQIRRELRPLRQQILDRLYALMDRHREAFQDRFVTLRRERYCVPVRAGMAQKVPGILLDESESGATLFIEPFSVVKLNNRLQALRLKEEEEVNRILRDLSERLAKDEGVPKTLEALGLLDLVQAQAALARDLGLSRPAFGERYELYRAFHPLIPDAVRNSFALDEKNRILLISGPNMGGKTALLKTLGLAVLMAQSGLFVAAEKALLAWPDRVYADIGDEQSLQENLSTFAGHLRRLREMLEEATSHSLVLIDELGSGTDPEEGAALSQAILEALLERGVKGMVTTHLSPLKAFAQGREGIQNASMRFDLEALRPTYELVLGVPGRSYALAIARRLALPEEVLKRAEALLPEGGRLEALLERLEAERLALEAERERLRRELSQVERLRKALAEREARFEEERAERLKALEEEVRAELLKVEAELKALKEKARTEGKRDALRELMALRERYAKKAPPPPPPPGLAPGVLVEVPSLGKRGRVVELRGEEVLVQVGPLKMSLKPQEVKPLPEAEPGKPLLAKPRREVKEVDLRGLTVAEALLEVDQALEEARALGLSTLRLLHGKGTGALRQAIREALRRDKRVESFADAPPGEGGHGVTVVALRP | soluble |
| MKYNNHDKIRDFIIIEAYMFRFKKKVKPEVDMTIKEFILLTYLFHQQENTLPFKKIVSDLCYKQSDLVQHIKVLVKHSYISKVRSKIDERNTYISISEEQREKIAERVTLFDQIIKQFNLADQSESQMIPKDSKEFLNLMMYTMYFKNIIKKHLTLSFVEFTILAIITSQNKNIVLLKDLIETIHHKYPQTVRALNNLKKQGYLIKERSTEDERKILIHMDDAQQDHAEQLLAQVNQLLADKDHLHLVFE | soluble |
| MSFVVANTEFVSGAAGNLARLGSMISAANSAAAAQTTAVAAAGADEVSAAVAALFGAHGQTYQVLSAQAAAFHSQFVQALSGGAQAYAAAEATNFGPLQPLFDVINAPTLALLNRPLIGNGADGTAANPNGQAGGLLIGNGGNGFSPAAGPGGNGGAAGLLGHGGNGGVGALGANGGAGGTGGWLFGNGGAGGNSGGGGGAGGIGGSAVLFGAGGAGGISPNGMGAGGSGGNGGLFFGNGGAGASSFLGGGGAGGRAFLFGDGGAGGAALSAGSAGRGGDAGFFYGNGGAGGSGAGGASSAHGGAGGQAGLFGNGGEGGDGGALGGNGGNGGNAQLIGNGGDGGDGGGAGAPGLGGRGGLLLGLPGANGT | not soluble |
| MAGQADNRAPYAKIAAHYTELITSGQLQPGSLLPSIKNLAEEWNVSTATAEKALRKLRNEGLVRGIHGIGTEVLDQPAPMSSGAQRQDRGRRTGSSWGAGERSDSHKAAVVPAPAEVAHALDIEPGSDVIRRSRVYRDRHGIVAHSTSWIPARFGRLIPQLAASERLTGGTSLQLIAQVTGHPITHRVDSASARLLTPEYTRLLELDPENPPAEPVVVMTAKFVDSEGTVVEYGVDLGGPGRTWRTESEVTQ | soluble |
| MNTLEKIQKNLENFSKSERKVAEVIMASPQTAIHSSIATLAKMADVSEPTVNRFCRRLDTKGFPDFKLHLAQSLANGTPYVNRNVEEDDGPDAYTHKIFESTMACLDVAKNSLDPMQVNRAVDLLTQAKRISFFGLGASSSVARDAQNKFIRFNIPITCFEDIVMQRMSCINCSDNDVIVLISHTGRTKSQVEIANLARENGATVIAITAKDSPLEKASSLAITLDIPEDTDVYMPMASRVVQMTVIDVLATGFTLRRGTGFRENLKRVKDALKDSRYDKLSQY | not soluble |
| GPGSMQISPPFCGCLSEMYARSLVKQGAFSCFRSCVRVGSVAIIGGEAHMFKQLYKRDEKLRLYRSLIKGASRFPLRSRRDIVTEEVRSSFRHPLNDSLTNEEVDRKLVLGWERAEAIKTYAQNMYWFHSRDEVSKEMMHHSLERDRQRVREMERCNTVGAAPRKTPEVTEFKSSMYNVHPDYYEKIGQKPLTHTRDIWRARGQYGSDVGGPRQKFFVRRFKALFPQGW | not soluble |
